Data: paper PMC2858980

How the values were obtained:
[1] = target: IL-8(1–66) monomer; assay: NMR titration
[2] = target: IL-8(1–72) R26C trapped dimer; assay: NMR titration

- Kd [1]: 10 µM
- Kd [2]: 340 µM
Binder: LWTWFEDEFANATGMPPVEKDYSP [CXCR1 N-domain 24-mer]
